Reference: the supplement of paper PMC7877785
± gives the uncertainty stated by the source.

Assay: self-splicing fitness, log relative to wild type (ln ratio); higher = more splicing; Tetrahymena group I intron in knt gene, E. coli kanamycin selection, DiMSum; sequences stand for … in CUCUCU…GGAGGGAAAAGUUAUCAGGCAUGCACCUGGUAGCUAGUCUUUAAACCAAUAGAUUGCAUCGGUUUAAAAGGCAAGACCGUCAAAUUGCGGGAAAGGGGUCAACAGCCGUUCAGUACCAAGUCUCAGGGGAAACUUUGAGAUGGCCUUGCAAAGGGUAUGGUAAUAAGCUGACGGACAUGGUCCUAACCACGCAGCCAAGUCCUAAGUCAACAGAUCUUCUGUUGAUAUGGAUGCAGUUCACAGACUAAAUGUCGGUCGGGGAAGAUGUAUUCUUCUCAUAAGAUAUAGUCGGACCUCUCCUUAAUGGGAGCUAGCGGAUGAAGUGAUGCAACACUGGAGCCGCUGGGAACUAAUUUGUAUGCGAAAGUAUAUUGAUUAGUUUUGGAGUACUCGUGGUCG
In short: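 Pooled colonies went to amplicon sequencing on an Illumina HiSeq 2500 after six replicate transformations. The plates were LB agar with 100 μg/mL carbenicillin, 50 μM IPTG and 0.2% rhamnose, with or without 25 μg/mL kanamycin, incubated overnight at 37°C or 30°C. The E. coli BL21(DE3) library had all eight P1ex-region intron nucleotides randomised, the intron placed in the knt kanamycin-resistance gene on pET-22b(+). DiMSum fitness is the error-weighted combination of replicate fold changes, kanamycin against none, normalised to wild type.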

Sequence | self-splicing fitness (ln) (30 °C) | self-splicing fitness (ln) (37 °C)
ACGGAGCAAUAUUACGCAAA | -2.73 ± 0.25 | -1.58 ± 0.22
ACGGAGCAAUAUUACGCACU | -3.4 ± 0.34 | -1.32 ± 0.23
ACGGAGCAAUAUUACGCGAU |  | -1.2 ± 0.17
ACGGAGCAAUAUUACGCGGA | -3.41 ± 0.37 | -1.54 ± 0.26
ACGGAGCAAUAUUACGCGUA | -2.62 ± 0.12 | -1.32 ± 0.11
ACGGAGCAAUAUUACGGAAC | -3.05 ± 0.27 | -3.62 ± 0.47
ACGGAGCAAUAUUACGGACU | -2.21 ± 0.15 | -1.84 ± 0.16
ACGGAGCAAUAUUACGGCGA | -2.01 ± 0.13 | -1.83 ± 0.15
ACGGAGCAAUAUUACGGGAG | -3.09 ± 0.37 | -1.65 ± 0.24
ACGGAGCAAUAUUACGGUAU | -4.48 ± 0.25 | -2.58 ± 0.2
ACGGAGCAAUAUUACGGUCU | -3.07 ± 0.21 | -2.44 ± 0.26
ACGGAGCAAUAUUACGGUUU | -3.1 ± 0.15 | -3.31 ± 0.28
ACGGAGCAAUAUUACGUAUG | -3.6 ± 0.2 | -2.81 ± 0.32
ACGGAGCAAUAUUACGUCUU | -2.7 ± 0.35 | -2.06 ± 0.5
ACGGAGCAAUAUUACGUGAU | -3.47 ± 0.19 | -1.32 ± 0.2
ACGUAGCAAUAUUACGAACG | -1 ± 0.082 | -0.927 ± 0.12
ACGUAGCAAUAUUACGAAUG | -2.89 ± 0.13 | -1.53 ± 0.12
ACGUAGCAAUAUUACGACAA | -0.894 ± 0.071 | -0.495 ± 0.084
ACGUAGCAAUAUUACGACAU | -0.126 ± 0.012 | 0.0543 ± 0.032
ACGUAGCAAUAUUACGACUA | -0.558 ± 0.15 | 0.529 ± 0.18
ACGUAGCAAUAUUACGAGCA | -0.664 ± 0.2 | -1.82 ± 0.19
ACGUAGCAAUAUUACGAGUG | -2.54 ± 0.2 | -1.43 ± 0.15
ACGUAGCAAUAUUACGAUGC | -3.24 ± 0.22 | -1.51 ± 0.22
ACGUAGCAAUAUUACGAUUA | -0.625 ± 0.12 | -0.514 ± 0.11

Sequence | self-splicing fitness (ln) (30 °C) | self-splicing fitness (ln) (37 °C)
ACGUAGCAAUAUUACGCCAU | -3.02 ± 0.19 | -2.55 ± 0.24
ACGUAGCAAUAUUACGCCGA | -1.34 ± 0.23 | -0.566 ± 0.18
ACGUAGCAAUAUUACGCCGG | -1.28 ± 0.11 | -0.915 ± 0.17
ACGUAGCAAUAUUACGCGGC | -3.01 ± 0.22 | -2.47 ± 0.42
ACGUAGCAAUAUUACGCGUC | -1.53 ± 0.22 | -1.97 ± 0.35
ACGUAGCAAUAUUACGGGAG | -3.63 ± 0.17 | -2.28 ± 0.17
ACGUAGCAAUAUUACGGGGU | -4.31 ± 0.3 | -2.51 ± 0.18
ACGUAGCAAUAUUACGGUCA | -0.681 ± 0.16 | 0.577 ± 0.17
ACGUAGCAAUAUUACGUAGA | -3.58 ± 0.42 | -2.86 ± 0.41
ACGUAGCAAUAUUACGUCAC |  | -1.67 ± 0.4
ACGUAGCAAUAUUACGUCUA | -0.802 ± 0.27 | -1.22 ± 0.18
ACGUAGCAAUAUUACGUGUU | -3.73 ± 0.13 | -2.37 ± 0.13
ACGUAGCAAUAUUACGUUGC | -3.35 ± 0.24 | -1.68 ± 0.22
ACUAAGCAAUAUUACGAAAU | -2.67 ± 0.16 | -1.22 ± 0.17
ACUAAGCAAUAUUACGAACU | -0.447 ± 0.083 | 0.532 ± 0.1
ACUAAGCAAUAUUACGACAA | -1.63 ± 0.079 | -0.52 ± 0.1
ACUAAGCAAUAUUACGAGAC | -2.89 ± 0.28 | -3.24 ± 0.35
ACUAAGCAAUAUUACGAGAG | -3.17 ± 0.13 | -2.52 ± 0.15
ACUAAGCAAUAUUACGAGUC | -3.83 ± 0.42 | -2.73 ± 0.2
ACUAAGCAAUAUUACGAUAC | -2.39 ± 0.21 | -1.29 ± 0.22
ACUAAGCAAUAUUACGAUCG | -0.981 ± 0.15 | 0.89 ± 0.18
ACUAAGCAAUAUUACGCCAC | -2.45 ± 0.38 | 
ACUAAGCAAUAUUACGCGCA | -0.252 ± 0.067 | -0.518 ± 0.085
ACUAAGCAAUAUUACGCGCC | 0.0442 ± 0.11 | -0.687 ± 0.14

Sequence | self-splicing fitness (ln) (30 °C) | self-splicing fitness (ln) (37 °C)
ACUAAGCAAUAUUACGCUAA | -3.83 ± 0.43 | -1.92 ± 0.38
ACUAAGCAAUAUUACGCUCU | -0.0344 ± 0.097 | -0.566 ± 0.1
ACUAAGCAAUAUUACGCUUU | -2.34 ± 0.17 | -1.97 ± 0.18
ACUAAGCAAUAUUACGGACU | 0.14 ± 0.054 | 0.436 ± 0.076
ACUAAGCAAUAUUACGGGAG | -2.5 ± 0.11 | -1.88 ± 0.14
ACUAAGCAAUAUUACGGGCU | -0.833 ± 0.089 | -0.736 ± 0.083
ACUAAGCAAUAUUACGGGGG | -3.59 ± 0.29 | -1.26 ± 0.17
ACUAAGCAAUAUUACGGUAG | -4.09 ± 0.2 | -3.56 ± 0.2
ACUAAGCAAUAUUACGGUUA | -2.02 ± 0.1 | -1.06 ± 0.086
ACUAAGCAAUAUUACGUAGC | -2.96 ± 0.16 | -1.25 ± 0.13
ACUAAGCAAUAUUACGUGCA | -1.37 ± 0.073 | -0.431 ± 0.11
ACUAAGCAAUAUUACGUUCA | -1.29 ± 0.1 | -0.98 ± 0.098
ACUAAGCAAUAUUACGUUCC | -2.41 ± 0.23 | -1.2 ± 0.29
ACUCAGCAAUAUUACGAAAU | -1.11 ± 0.091 | 0.0403 ± 0.099
ACUCAGCAAUAUUACGAAGC | -1.99 ± 0.19 | -1.46 ± 0.16
ACUCAGCAAUAUUACGACGA | -0.9 ± 0.087 | -0.164 ± 0.11
ACUCAGCAAUAUUACGAGCA | -0.632 ± 0.068 | 0.302 ± 0.092
ACUCAGCAAUAUUACGAUCA | -0.712 ± 0.13 | -0.359 ± 0.12
ACUCAGCAAUAUUACGAUCG | -1.54 ± 0.074 | -0.221 ± 0.12
ACUCAGCAAUAUUACGAUCU | -0.0985 ± 0.064 | 0.407 ± 0.08
ACUCAGCAAUAUUACGCUUC | -2.3 ± 0.094 | -1.48 ± 0.12
ACUCAGCAAUAUUACGGAUA | -0.808 ± 0.15 | -0.834 ± 0.16
ACUCAGCAAUAUUACGGUUA | -0.995 ± 0.08 | -0.513 ± 0.076
ACUCAGCAAUAUUACGUAUC | -2.28 ± 0.14 | -1.66 ± 0.14

Sequence | self-splicing fitness (ln) (30 °C) | self-splicing fitness (ln) (37 °C)
ACUCAGCAAUAUUACGUAUU | -2.01 ± 0.081 | -0.892 ± 0.11
ACUCAGCAAUAUUACGUCGG | -1.74 ± 0.07 | -1.25 ± 0.084
ACUCAGCAAUAUUACGUCUU | -0.765 ± 0.046 | 0.0108 ± 0.062
ACUCAGCAAUAUUACGUUAC | -4.33 ± 0.26 | -2.31 ± 0.18
ACUCAGCAAUAUUACGUUAU | -2.29 ± 0.073 | -1.27 ± 0.086
ACUCAGCAAUAUUACGUUGG | -3.63 ± 0.15 | -1.49 ± 0.096
ACUGAGCAAUAUUACGCAGG | -3.15 ± 0.23 | -1.14 ± 0.13
ACUGAGCAAUAUUACGCGAU | -3.36 ± 0.25 | -1.71 ± 0.14
ACUGAGCAAUAUUACGCGGU | -2.46 ± 0.31 | 
ACUGAGCAAUAUUACGGAAA | -2.92 ± 0.27 | -2.61 ± 0.28
ACUGAGCAAUAUUACGGCAA | -2.13 ± 0.14 | -2.33 ± 0.21
ACUGAGCAAUAUUACGGGGG | -3.19 ± 0.16 | -2.17 ± 0.17
ACUGAGCAAUAUUACGGUCU | -2.46 ± 0.12 | -1.57 ± 0.16
ACUGAGCAAUAUUACGGUUG | -2.76 ± 0.14 | -1.73 ± 0.15
ACUGAGCAAUAUUACGUAUU | -3.29 ± 0.12 | -1.48 ± 0.097
ACUGAGCAAUAUUACGUCUG | -3.59 ± 0.28 | -2.43 ± 0.2
ACUGAGCAAUAUUACGUGAG | -1.82 ± 0.063 | -1.36 ± 0.085
ACUGAGCAAUAUUACGUGCU | -3.84 ± 0.41 | -2.28 ± 0.27
ACUGAGCAAUAUUACGUUCU | -1.77 ± 0.14 | -1.48 ± 0.12
ACUUAGCAAUAUUACGAAAC | -3.64 ± 0.32 | -1.65 ± 0.24
ACUUAGCAAUAUUACGAAGA | -1.69 ± 0.12 | -1.24 ± 0.14
ACUUAGCAAUAUUACGACAA | -1.55 ± 0.17 | -0.888 ± 0.28
ACUUAGCAAUAUUACGAGGG | -3.07 ± 0.24 | -2.65 ± 0.23
ACUUAGCAAUAUUACGAGGU | -3.47 ± 0.22 | -1.96 ± 0.21
